Measurements from paper PMC8563363.

Tests used:
[1] = target: trimeric cohesin (SMC1, SMC3-FLAG, SCC1(TEV)-Halo-His14) (human) (UniProt Q14683); assay: high-speed atomic force microscopy
[2] = target: NIPBL (human) (UniProt Q6KC79); assay: high-speed atomic force microscopy

stoichiometry N [1]	stoichiometry N [2]	Substance
1	–	NIPBL (from UniProt Q6KC79 1-2804) (natural protein)
–	2	NIPBL, Q6KC79 1-2804
